This note sets out measurements from FireProtDB.

The conditions of this data set: Homo sapiens, whole UniProt chain shown.
The mark [1] stands for this setting: pH 7, Thermal, DSC, Potassium phosphate buffer, NaCl, reversible: yes.
Setting [2] is: pH 7, Thermal, DSC, Tris-Maleate 0.02M, KCl 0.1 M, transition: 2, reversible: no.
[3] abbreviates: pH 7, Thermal, DSC, Tris-Maleate / KCL 20000 / 100000, transition: 2, reversible: no.
The mark [4] stands for this setting: pH 7, 25 °C, Urea, CD, Tris-HCL, Nacl, transition: 2, reversible: yes.
The mark [5] stands for this setting: pH 7, 25 °C, Urea, Fluorescence, Tris-HCl, NaCl, transition: 2.
The mark [6] stands for this setting: pH 7, 25 °C, Urea, fluorescence, Tris-HCL, Nacl, transition: 2, reversible: yes.
The mark [7] stands for this setting: pH 7.5, 0 °C, GdnHCl, CD, Na2HPO4 5 mM, transition: 2, reversible: No.
[8] abbreviates: pH 6.5, 25 °C, Urea, CD, Sodium phosphate 20 mM, NaCl 100 mM.
Setting [9] is: pH 4, 25 °C, GdnHCl, CD, Tris sodium acetate MES 50 mM 20 mM 20 mM.
Where [10] appears, read: pH 7, 25 °C, GdnHCl, CD, Tris sodium acetate MES 50 mM 20 mM 20 mM.
Setting [11] is: pH 7, 37 °C, GdnHCl, CD, Sodium phosphate 100 mM, reversible: Yes.
[12] abbreviates: pH 5.3, Thermal, DSC, acetate 20 mM.

“And” between values parts separate entries of the source, which are not always exact repeats. Equal values may be shown once.

B1: Protein CutA wild type, O60888 (protein)
chain: MSGGRAPAVLLGGVASLLLSFVWMPALLPVASRLLLLPRVLLTMASGSPPTQPSPASDSGSGYVPGSVSAAFVTCPNEKVAKEIARAVVEKRLAACVNLIPQITSIYEWKGKIEEDSEVLMMIKTQSSLVPALTDFVRSVHPYEVAEVIALPVEQGNFPYLQWVRQVTESVSDSITVLP
One may read the Tm as the temperature at the midpoint of the melting transition. In the case of B1, under setting [1], the Tm was found to be 96.4 °C, the “unfolding enthalpy (calorimetric)” value amounted to 284 kcal/mol and the unfolding free energy worked out at 0 kcal/mol. Besides, for the setting “pH 8, 37 °C, GdnHCl, CD, Tris-HCl buffer, NaCl, transition: 2, reversible: yes”, the “denaturant midpoint (higher = more stable)” value (from here on “denaturant midpoint”) was found to be 2.38 M.

B2: Matrilysin wild type, P09237 (protein)
chain: MRLTVLCAVCLLPGSLALPLPQEAGGMSELQWEQAQDYLKRFYLYDSETKNANSLEAKLKEMQKFFGLPITGMLNSRVIEIMQKPRCGVPDVAEYSLFPNSPKWTSKVVTYRIVSYTRDLPHITVDRLVSKALNMWGKEIPLHFRKVVWGTADIMIGFARGAHGDSYPFDGPGNTLAHAFAPGTGLGGDAHFDEDERWTDGSSLGINFLYAATHELGHSLGMGHSSDPNAVMYPTYGNGDPQNFKLSQDDIKGIQKLYGKRSNSRKK
On to B2, for which the Tm by setting is: under setting [2], 98.3 °C; under setting [3], 98.3 °C. In addition, the “unfolding enthalpy (calorimetric)” value reads like this: under setting [2], 13.7 kcal/mol; under setting [3], 13.8 kcal/mol.

B3: Frataxin, mitochondrial wild type, Q16595 (protein)
chain: MWTLGRRAVAGLLASPSPAQAQTLTRVPRPAELAPLCGRRGLRTDIDATCTPRRASSNQRGLNQIWNVKKQSVYLMNLRKSGTLGHPGSLDETTYERLAEETLDSLAEFFEDLADKPYTFEDYDVSFGSGVLTVKLGGDLGTYVINKQTPNKQIWLSSPSSGPKRYDWTGKNWVYSHDGVSLHELLAAELTKALKTKLDLSSLAYSGKDA
Regarding B3, the “denaturant midpoint” value under setting [4] is 4.92 M; the “denaturant midpoint” value (pH 7, 25 °C, Urea, CD, Tris-HCl, NaCl, transition: 2) was 4.92 M; the “denaturant midpoint” value under setting [5] came to 4.94 M; the “denaturant midpoint” value under setting [6] worked out at 4.94 M. Also, the unfolding free energy was 9 kcal/mol under setting [4], 9.1 kcal/mol under setting [5] and 9.1 kcal/mol under setting [6]. Also, the Tm (pH 7, Thermal, CD, Sodium phosphate buffer, NaCl) was 69.4 °C and the Tm (pH 7, Thermal, CD, sodium phosphate, Nacl, transition: 2) worked out at 69.4 °C.

B4: Apolipoprotein C-I wild type, P02654 (protein)
chain: MRLFLSLPVLVVVLSIVLEGPAPAQGTPDVSSALDKLKEFGNTLEDKARELISRIKQSELSAKMREWFSETFQKVKEKLKIDS
Turning to B4, under setting [7], the denaturant m value turned out to be 3.7 kcal/mol/M, the “denaturant midpoint” value is 0.85 M and the unfolding free energy was found to be 2.8 kcal/mol. For the same protein, the unfolding free energy (pH 7.5, 25 °C, GdnHCl, CD, Na2HPO4 5 mM, transition: 2, reversible: No) is 1.8 kcal/mol. The Tm (pH 7.8, Thermal, CD, Sodium phosphate 5 mM, reversible: yes) amounted to 51 °C.

B5: Gamma-crystallin D wild type, P07320 (protein)
chain: MGKITLYEDRGFQGRHYECSSDHPNLQPYLSRCNSARVDSGCWMLYEQPNYSGLQYFLRRGDYADHQQWMGLSDSVRSCRLIPHSGSHRIRLYEREDYRGQMIEFTEDCSCLQDRFRFNEIHSLNVLEGSWVLYELSNYRGRQYLLMPGDYRRYQDWGATNARVGSLRRVIDFS
Take B5: the “denaturant midpoint” value runs as follows: (pH 7, 25 °C, GdnHCl, Fluorescence, NaPO4 10 mM, reversible: yes) 3.7 M; (pH 7, 37 °C, GdnHCl, Fluorescence, NaPO4 10 mM, reversible: yes) 2.7 M. Besides, the Tm worked out at 76.6 °C (pH 7, Thermal, ANS fluorescence, PBS, transition: 2, reversible: yes) and 80 °C (pH 7, Thermal, CD, PBS, transition: 2, reversible: yes).

B6: Glutathione S-transferase A1 wild type, P08263 (protein)
chain: MAEKPKLHYFNARGRMESTRWLLAAAGVEFEEKFIKSAEDLDKLRNDGYLMFQQVPMVEIDGMKLVQTRAILNYIASKYNLYGKDIKERALIDMYIEGIADLGEMILLLPVCPPEEKDAKLALIKEKIKNRYFPAFEKVLKSHGQDYLVGNKLSRADIHLVELLYYVEELDSSLISSFPLLKALKTRISNLPTVKKFLQPGSPRKPPMDEKSLEEARKIFRF
Take B6: under setting [8], the denaturant m value amounted to 4.2 kcal/mol/M and the “denaturant midpoint” value was determined as 4.6 M.

B7: Interleukin-2 wild type, Q7Z7M3 (protein)
chain: MPTSSSTKKTQLQLEHLLLDLQMILNGINNYKNPKLTRMLTFKFYMPKKATELKHLQCLEEELKPLKEVLNLAQSKNFHLRPRDLISNINVIVLELKGSETTFMCEYADETATIVEFLNRWITFSQSIISTLT
On to B7, for which, under setting [9], the “denaturant midpoint” value is 4.4 M and the unfolding free energy turned out to be 9.9 kcal/mol. Moreover, under setting [10], the “denaturant midpoint” value was determined as 3.8 M and the unfolding free energy is 9.3 kcal/mol.

B8: Gamma-crystallin S wild type, P22914 (protein)
chain: MSKTGTKITFYEDKNFQGRRYDCDCDCADFHTYLSRCNSIKVEGGTWAVYERPNFAGYMYILPQGEYPEYQRWMGLNDRLSSCRAVHLPSGGQYKIQIFEKGDFSGQMYETTEDCPSIMEQFHMREIHSCKVLEGVWIFYELPNYRGRQYLLDKKEYRKPIDWGAASPAVQSFRRIVE
For B8, under setting [11], the denaturant m value was 4.6 kcal/mol/M and 2.9 kcal/mol/M; the “denaturant midpoint” value was 2.3 M and 1.7 M; the unfolding free energy is 10.5 kcal/mol and 4.9 kcal/mol. Also, the Tm (pH 7.4, Thermal, Fluorescence, Disodium phosphate, NaCl) is 67.5 °C and 65.8 °C.

B9: Cystatin-B wild type, P04080 (protein)
chain: MMCGAPSATQPATAETQHIADQVRSQLEEKENKKFPVFKAVSFKSQVVAGTNYFIKVHVGDEDFVHLRVFQSLPHENKPLTLSNYQTNKAKHDELTYF
For the protein B9, under setting [12], the Tm came to 50.2 °C, the “heat capacity change of unfolding” value stood at 1.6 kcal/mol/K and the “unfolding enthalpy (calorimetric)” value was found to be 70 kcal/mol.
